Assay [1] addresses murine perforin-2 (mPFN2) ectodomain (mouse) (UniProt A1L314). The experiment in a line: cryo-EM structure; pore: pre-pore sample lowered to pH 3.6 to 4.0 with 0.056% Cymal-6, room temperature, 30 min; C16 symmetry.
Assay [2] shares this target. Put plainly: high-speed atomic force microscopy; PFN2 monomers (0.043 mg/ml) incubated 5 min directly on freshly cleaved mica; 20 mM Hepes-NaOH pH 7.5, 200 mM NaCl, 2 mM CaCl2.
The target is the same in assay [3]. Put plainly: cryo-EM structure; pre-pore oligomers formed in solution: 0.5 mg/ml in 50 mM citric acid buffer pH 5.5, 150 mM NaCl, 37°C overnight; purified by SEC (Superose 6); 0.01% Tween 20 added; C16 symmetry.
For assay [4] the target is unchanged. The experiment in a line: high-speed atomic force microscopy; PFN2 monomers (0.043 mg/ml) incubated 5 min on a mica-supported E. coli lipid bilayer; 20 mM Hepes-NaOH pH 7.5, 200 mM NaCl, 2 mM CaCl2; subunit association and dissociation at incomplete rings, frames of 500 ms.

Consider “murine perforin-2 (mPFN2) ectodomain (from UniProt A1L314 20-652) (domain or fragment)”, for which the figures for the stoichiometry N in assay [1], in assay [2] and in assay [3] were 16, 1 to 16 subunits and 16 subunits, respectively. In addition, the subunit association rate (subunits·s^−1) in assay [4] stood at 2.4.

The record behind these values is paper PMC6989145.
